Several values for one entry are separate records, joined by “and”; a condition that tells them apart may be missing. Equal entries are not always repeated.
B1: Aha1-N (N-terminal domain of human Aha1) (domain or fragment, UniProt O95433 1-162, looked up)
chain: MAKWGEGDPRWIVEERADATNVNNWHWTERDASNWSTDKLKTLFLAVQVQNEEGKCEVTEVSKLDGEASINNRKGKLIFFYEWSVKLNWTGTSKSGVQYKGHVEIPNLSDENSVDEVEISVSLAKDEPDTNLVALMKEEGVKLLREAMGIYISTLKTEFTQG
notes: Aha1, human, N-terminal domain, amino acids 1-162; source: E. coli, purified
B2: human Aha1 N-terminal domain (domain or fragment, UniProt O95433 1-162, looked up)
chain: B1 chain
notes: Aha1, human, N-terminal domain (Aha1-N, amino acid 1-162); the ITC methods speak only of 'Aha1 constructs'; source: purified
B3: purified human Hsp90α-Y313E (natural protein)
chain: not shown
notes: Hsp90α (heat shock protein 90 alpha), human; 2H/13C Ile-labelled for NMR; also called Hsp90-Y313E; Y313E-Hsp90; source: purified
B4: Aha1-C (C-terminal domain of human Aha1) (domain or fragment, UniProt O95433 201-338, looked up)
chain: GVKIPTCKITLKETFLTSPEELYRVFTTQELVQAFTHAPATLEADRGGKFHMVDGNVSGEFTDLVPEKHIVMKWRFKSWPEGHFATITLTFIDKNGETELCMEGRGIPAPEEERTRQGWQRYYFEGIKQTFGYGARLF
notes: Aha1, human, C-terminal domain, amino acids 201-338; source: E. coli, purified
B5: purified Aha1-C (domain or fragment, human, UniProt O95433 201-338, looked up)
chain: B4 chain
notes: Aha1, human, C-terminal domain, amino acid 201-338; perdeuterated for NMR; source: purified
B6: human Aha1 C-terminal domain (domain or fragment, UniProt O95433 201-338, looked up)
chain: B4 chain
notes: Aha1, human, C-terminal domain (Aha1-C, amino acid 201-338); the ITC methods speak only of 'Aha1 constructs'; source: purified

Legend:
[1] = target: T1, Human wild-type Hsp90 (Hsp90α) (human, UniProt P07900 1-732); experiment: ITC; without AMPPNP; Hsp90 (30 µM) in the cell, Aha1 constructs (380-450 µM) in the syringe; 20 mM Tris pH 7.5, 100 mM NaCl, 0.5 mM EDTA, 5 mM MgSO4, 1 mM TCEP, 36 °C; three technical repeats; conditions: both partners purified
T1 construct: Heat shock protein 90 alpha, human; also called Hsp90-wt; WT

Hsp90-Y313E [2] = target: T2, Hsp90-Y313E (human, UniProt P07900 1-732, Y313E); experiment: as above; conditions: both partners purified
T2 construct: Heat shock protein 90 alpha, human, phosphomimetic mutant Y313E; also called Y313E-Hsp90; Hsp90α-Y313E; source: E. coli, purified

[3] = target: T1, Human wild-type Hsp90 (Hsp90α); experiment: ITC; with 2 mM AMPPNP in cell and syringe; Hsp90 (30 µM) in the cell, Aha1 constructs (380-450 µM) in the syringe; 20 mM Tris pH 7.5, 100 mM NaCl, 0.5 mM EDTA, 5 mM MgSO4, 1 mM TCEP, 36 °C; three technical repeats; conditions: both partners purified
Hsp90-Y313E [4] = target: T2, Hsp90-Y313E; experiment: as above; conditions: both partners purified
human Hsp90α, wild-type [5] = target: T3, human Hsp90α, wild-type (human, UniProt P07900 1-732); experiment: ITC; PEAQ-ITC, 36 °C; Hsp90 in the cell (30 μM), Aha1 constructs in the syringe (380-450 μM); 20 mM Tris pH 7.5, 100 mM NaCl, 0.5 mM EDTA, 5 mM MgSO4, 1 mM TCEP; no AMPPNP; three technical repeats; conditions: both partners purified
T3 construct: Hsp90α (heat shock protein 90 alpha), human; also called WT; wild-type Hsp90; source: purified

[6] = target: T4, human Hsp90α Y313E (phosphomimetic mutant) (human, UniProt P07900 1-732, Y313E); experiment: as above; conditions: both partners purified
T4 construct: Hsp90α, human, with the phosphomimetic substitution Y313E (numbering based on human Hsp90α); also called Hsp90-Y313E; source: purified

human Hsp90α, wild-type [7] = target: T3, human Hsp90α, wild-type; experiment: ITC; PEAQ-ITC, 36 °C; Hsp90 in the cell (30 μM), Aha1 constructs in the syringe (380-450 μM); 20 mM Tris pH 7.5, 100 mM NaCl, 0.5 mM EDTA, 5 mM MgSO4, 1 mM TCEP; 2 mM AMPPNP in cell and syringe; three technical repeats; conditions: both partners purified
[8] = target: T4, human Hsp90α Y313E (phosphomimetic …); experiment: as above; conditions: both partners purified
[9] = target: the molecule itself; experiment: cross-linking; purified Hsp90 (with or without 10 mM AMPPNP, 10 min on ice) mixed with equimolar Aha1-His, 30 min on ice; 1 mM BDP-NHP (lysine-lysine), 30 min at room temperature; 25 mM HEPES pH 7.3, 100 mM NaCl; LC-MS (ReACT, PRM)
[10] = target: B3; experiment: ITC; Supplementary Table 3, with 2 mM AMPPNP in cell and syringe: Hsp90 30 μM in the cell, Aha1 constructs 380-450 μM in the syringe; 36 °C; 20 mM Tris pH 7.5, 100 mM NaCl, 0.5 mM EDTA, 5 mM MgSO4, 1 mM TCEP; conditions: both partners purified

Kd (Hsp90-Y313E [2])	Kd [3]	Kd (Hsp90-Y313E [4])	Kd [6]	Kd (human Hsp90α, wild-type [7])	Kd [8]	Binder	also measured
11.2 µM	4.9 µM	8.9 µM	–	–	–	B1	Kd [1]: 6.8 µM
–	–	–	11.6 µM and 12.2 µM and 9.96 µM and 11.2 µM	5.69 µM and 4.69 µM and 4.25 µM and 4.88 µM	7.97 µM and 8.96 µM and 9.66 µM and 8.86 µM	B2	Kd (human Hsp90α, wild-type [5]): 7.2 µM and 6.1 µM and 7.22 µM and 6.84 µM
–	–	–	–	–	–	B3	binding result [9]: binds
5.5 µM	15.6 µM	2.3 µM	–	–	–	B4	–
–	–	–	–	–	–	B5	fold reduction of Kd against wild-type Hsp90 (both with AMPPNP) [10]: ~7 fold; fold reduction of Kd with AMPPNP against without AMPPNP [10]: > 2 fold
–	–	–	7.71 µM and 4.59 µM and 4.04 µM and 5.45 µM	17 µM and 13.3 µM and 16.4 µM and 15.6 µM	2.02 µM and 2.27 µM and 2.62 µM and 2.3 µM	B6	–
